# Test results as given in the supplement of paper PMC12764529.
# ± gives the half width of the 95% confidence interval.
# Columns and labels:
# [1] = folding stability dG unfold from trypsin proteolysis; higher = more stable
# How it was run: (§1)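 Only designs with AlphaFold2 dimer inter-PAE above 15 were retained; each was a mini-protein under 80 residues with no cysteine, in a PA-tagged cDNA display construct. After digestion with trypsin and chymotrypsin and sequencing, K50 was inferred by Bayesian fitting of counts, and unfolding free energy was derived per protease or combined against a sequence-predicted unfolded-state K50 and a shared folded-state K50.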
# [2] = folding stability dG unfold from chymotrypsin proteolysis; higher = more stable
# How it was run: as §1
# [3] = folding stability dG unfold (combined trypsin and chymotrypsin); higher = more stable
# How it was run: as §1
Sequence,folding stability dG unfold [1] [kcal/mol],folding stability dG unfold [2] [kcal/mol],folding stability dG unfold [3] [kcal/mol]
SAGMPAETETTVTITTETIDEKGNLSTKTYTATVRTLPDGRVLVYLENELLLIDPATGEVVAREPNYKPSAG [r14_821_JUSTAS],2.3 ± 0.025,2.264 ± 0.015,2.28 ± 0.051
SAGGSAGGSAGGPRTLTLTVTLTRTYYDEETGEEVETETETLTLTLRLEPPPPLSPEQLSAGGSAGGSAGGS [r10_50_TrROS_Hall],2.69 ± 0.061,3.19 ± 0.07,2.99 ± 0.17
SAGMPEVKLLPKPDGSLVLVVVFEDKAIIIEFPPDGEGKIYIIDLKNNKITEIPFPSEDPLKAIKEALSSAG [r5_674_TrMRF],2.35 ± 0.086,3.99 ± 0.21,3.72 ± 0.27
SAGGSAGGSAGGSSTSLIGNSTVTVDPVYVTDTGERGFVISADVPPSVSEAVVEAHVASSAGGSAGGSAGGS [r10_531_JUSTAS],0.869 ± 0.028,0.0382 ± 0.022,0.485 ± 0.05
SAGGSAGGSAEEEEMPVEELVRRKAREVEEAFPGLRGERRITVTVTLPEGETWTAELVLPLSAGGSAGGSAG [r3_64_TrMRF],0.19 ± 0.19,0.502 ± 0.18,0.507 ± 0.13
SGLAPGEVVPEKFEREITDPETGKKYKVEVTTEIAPENPVRRVTVTTTPPDGTTTTTEEVIPPGEEYTLESA [r9_88_JUSTAS],-0.889 ± 0.27,0.867 ± 0.092,0.468 ± 0.077
SAKFRPVEIPFEIKLEEKDPEDGKKEEREFDIKVKIMVFPDNGMVFISIEFIELGRPITIMLPPGAPIISAG [r14_587_TrROS],2.61 ± 0.17,3.37 ± 0.092,3.08 ± 0.28
SAGGSAGGSAGGSMLPPDTTVTSTTFLPNGTVVNTTTTYTATPDDTYTVTTTTTTTPLTSSAGGSAGGSAGG [r7_249_JUSTAS],0.765 ± 0.037,0.631 ± 0.16,0.766 ± 0.11
SAGGSAKKPKPGRLFLRYEEPEKGEVVEAVLTVYPNNVVELEVRRPDGKPVPLEKALKLLKELGLLSAGGSA [r15_872_TrMRF],1.54 ± 0.046,2.12 ± 0.1,1.86 ± 0.14
SAGGEMVEIVVKFKTKEELEAAIRAALPPGATVEVTVEEKDGELYLTITVPKENAERLREALKKALESAGGS [r16_43_TrROS_Hall],4.2 ± 0.28,4.48 ± 0.13,4.57 ± 0.28
SAGGMTRVLELTVPVDVIGPEELKALLEALAEDAEVEFEIGPDGLLRVRVTVDVPPDPDAPPDLDGESAGGS [r16_535_TrMRF],1.82 ± 0.045,2.4 ± 0.099,2.33 ± 0.11
SAGGSAGGSALPEAEVLEVRFSPDGRRVDAVLRLDGELLVLRIDFPPDGTARIELYPAEDISAGGSAGGSAG [r3_167_TrMRF],1.05 ± 0.065,2.43 ± 0.068,2.07 ± 0.13
SAGGSAGGSKIEIHVQVSPELSPEEALERIRREIEEALPEELKDISLDDIIITVYPSHPDVPLSAGGSAGGS [r12_384_TrMRF],1.09 ± 0.047,-0.0223 ± 0.053,0.643 ± 0.099
SAGLEDAQKEKRFVIKIEIRHPNGEKVKMTIAFKPGDPEDIRDELRKMGMPPDDLNERNPNLKIDEIEPSAG [r5_430_TrROS],0.646 ± 0.084,1.59 ± 0.079,1.29 ± 0.11
SAELKISKIDVSSLPDGSKKVTVNFSAPNFKVTITLDKSGNVSVEVSPEARKLPPEFFNLILNLAKELGSAG [r14_555_TrMRF],3.64 ± 0.15,4.14 ± 0.1,3.96 ± 0.1
SAGGPVVEKIRELLKELGYEVEVTDVKEDYVEIKVKLPDKEITLPDGSKIERLENGELRIWIPKEDLSAGGS [r8_297_TrROS_Hall],2.98 ± 0.061,3.4 ± 0.088,3.25 ± 0.083
SAGDNMYKYDYENPWYGIKIEVWVSPNGQIVSIKVKIEKVPPVPPKPPIDPEDMVPDPDGKYRSPNDLDSAG [r5_685_TrROS],1.4 ± 0.098,2.26 ± 0.026,1.95 ± 0.099
SAGGSAGGSMNVSPEELEALARERIEALLAENPDVPRDDVVLEFEGRSESPGKVITLTLRVRASAGGSAGGS [r12_707_JUSTAS],0.242 ± 0.14,-0.00174 ± 0.23,0.0895 ± 0.21
SAGGKLQLLLRSPDGNVEVALSFEKLPDGKVKVTATVRNKKTGRTYRLEVTFDLKTKKIEIKLEELPSAGGS [r16_684_TrROS_Hall],4.78 ± 0.22,6.24 ± 0.14,> 6
SAGIEIDIEVDPENGFIKITAKIHNPDGNPVYEMEMWIPVDNGRIYRVDIRINPDNGKIELDIEPFPLNSAG [r5_34_TrROS],3.48 ± 0.29,3.88 ± 0.24,3.79 ± 0.26
SAGKWKVRTIPLPGFSITIWYDPDEGRIRISITMWMWKPKKDPENGKPKQEHRMMTMEAPIPIPPGAPISAG [r5_195_TrROS],1.86 ± 0.074,2.51 ± 0.29,2.3 ± 0.27

Sequence,folding stability dG unfold [1] [kcal/mol],folding stability dG unfold [2] [kcal/mol],folding stability dG unfold [3] [kcal/mol]
SAGGSAGGSAGGSSSSTVPLPDDTTLTVHTGSSSYTVTTTSPDGTSTTTTVSPATVAAALSAGGSAGGSAGG [r11_1068_JUSTAS],0.255 ± 0.022,-0.0339 ± 0.1,0.188 ± 0.077
SAGGSEKKVLVLKFRHPENDKPLFSVRIVLEKPPEDSYKAKIELLDLPEDYVLSPEAIKAILEALKSAGGSA [r2_7_TrMRF],2.05 ± 0.036,2.58 ± 0.11,2.3 ± 0.11
SAGGSAGGSAGGPTVTLTLEVPVEDAEELAKALEDAGKARVTKVERNEDGFLRITVEFEDSAGGSAGGSAGG [r7_589_TrROS_Hall],0.593 ± 0.048,1.28 ± 0.027,1.06 ± 0.075
SAETVTITLPGATITVEKVDGKWIATVTKVEPGADKVTVEVTLTKVDEDGNTTTVTETVTIDAKTGKVLSAG [r14_724_TrROS_Hall],2.7 ± 0.32,2.92 ± 0.19,2.81 ± 0.23
SAGGSAGGSAGGEIPIKIRPYDPKDGEPKDEHPIPFDTPNGNSLDEIAKQLPPDHFEVDISAGGSAGGSAGG [r17_339_TrROS],0.382 ± 0.067,1.11 ± 0.018,0.875 ± 0.059
SAGGSAGGSAGAPNIVVVTLTRDALFYNPVEGKWEVKPVTLTRAFTSKEEADKWLEEIGLSAGGSAGGSAGG [r11_984_TrMRF],2.95 ± 0.091,3.84 ± 0.042,3.5 ± 0.095
SAGGSAGGSAGGDDNDKEPIGEVTVEVIIPPQIPIRIRWDIYKDPPNGNAMMNMDIDIHSAGGSAGGSAGGS [r10_6_TrROS],0.638 ± 0.12,0.968 ± 0.12,0.719 ± 0.22
SAGNAKEIAKKIKIRIREFFAERFGFPDVEIDSVTIKDVDPKNGRVRVNITWWWPNGRPWKHEIEIPVDSAG [r5_20_TrROS],2.38 ± 0.048,2.43 ± 0.072,2.43 ± 0.11
SAGGSAGGKKKIKPPEVTIKIKNKDGSVFEAKITKVEYDEETKKLYLEIEIEVNGKKYKLTIELSAGGSAGG [r6_962_TrROS_Hall],2.87 ± 0.16,4.49 ± 0.26,4.16 ± 0.76
SAGGSAGGSAMTVRIEFEDGSVKEIPAEEFSEDFIKALPKKYKVSEYPEPPLDNNKSNILKSAGGSAGGSAG [r3_69_JUSTAS],-0.0131 ± 0.059,0.697 ± 0.085,0.431 ± 0.091
SAGGEIEILLEDGTLLRIRVELDEDGNLRVTVELFRLEPPPAPEVVVERREEREERRVLFADSAEDLSAGGS [r16_802_TrROS_Hall],0.941 ± 0.06,2.27 ± 0.1,1.75 ± 0.15
SAGGLENLENFELVETLTVKLPNGDKPVTLTLYRHPDGPAENVTSYEGKKYVFVVTDDSIEFFEGGTSAGGS [r16_711_TrMRF],0.0263 ± 0.044,1.24 ± 0.16,0.81 ± 0.15
SAGGSAGGSAGGMTVVERTIEVEPDAKVIPLNLPGSNISATVLEYDPETGTLKVKIYVKESAGGSAGGSAGG [r17_198_JUSTAS],0.485 ± 0.05,1.06 ± 0.12,0.945 ± 0.11
SAGGSAGGSYKIDKIEVQPPPGGYYQATIEVEQVDPENGNPQRQEQEIPVPANDPKQIKDFLKSAGGSAGGS [r12_691_TrROS],-0.523 ± 0.19,0.379 ± 0.16,0.174 ± 0.22
SAGGSAGGEIVITLPNVKSKEEAKKAAEKLIEELKKKGIKDKTIKVTVIDEKTGKEYTFTIKLKSAGGSAGG [r6_237_TrROS_Hall],3.81 ± 0.15,4.38 ± 0.16,4.14 ± 0.3
SMPAEMSPEEVREAVRALVEEALAANPGEPVTVPIEEIRAALPGYSPEVLREVLGLTEEEIAAGPVTLRLSA [r9_525_JUSTAS],0.885 ± 0.042,-0.45 ± 0.35,0.483 ± 0.12
SAGGSAGGEPETIEIKMTPEELEELARELEKEGYTIEVEVVEEKVVGPDGKEREVVVRVRVEKRSAGGSAGG [r6_857_TrROS_Hall],0.991 ± 0.03,1.32 ± 0.04,1.1 ± 0.099
SAGGSAGGSAGVKVLKNPGDSLVTVVTETTVTKTTTDPEGNTTTTPVKVTTTTLLEVPLTSAGGSAGGSAGG [r17_103_JUSTAS],0.205 ± 0.033,0.215 ± 0.056,0.279 ± 0.071
SAGEKIKEALKKAGVEKVEIVEIKRLKNGKVLIVIRLHPDMSEEQRRRLLKALADALREEFPDVKIVELSAG [r5_101_TrROS_Hall],4.79 ± 0.13,4.33 ± 0.051,4.5 ± 0.052
SAGGMLRVTATVGYAPDDPAVELAKKIAEALTPPGMKVRMKAKVTPLADGTYRIDIEVEIRPPGEPGSAGGS [r16_128_TrMRF],2.65 ± 0.16,3.64 ± 0.13,3.27 ± 0.14
SAGGSAGGGKPKVEIEYNGKTYEFDSLEELVAEAKEPVRIRLPNGEEIELSREDLKNLTVRLVPSAGGSAGG [r6_684_TrROS_Hall],1.55 ± 0.018,2.29 ± 0.056,1.99 ± 0.043
